Experimental data taken from FireProtDB.
Several values for one entry are separate records, joined by “and”; a condition that tells them apart may be missing. Equal entries are not always repeated.

Settings: whole UniProt chain shown
[1] = Escherichia coli, pH 6, 19 °C, GdnHCl, CD, sodium phosphate 10 mM, sodium sulphate 10 mM, reversible: yes
[2] = Escherichia coli, pH 6, 25 °C, GdnHCl, CD, sodium phosphate 10 mM, sodium sulphate 10 mM, reversible: yes
[3] = Escherichia coli, pH 6, 25 °C, Thermal, DSC, Sodium phosphate 10 mM, Na2SO4 10 mM, reversible: yes
[4] = Escherichia coli, pH 6, Thermal, DSC, Sodium phosphate 10 mM, Na2SO4 10 mM, reversible: yes
[5] = Escherichia coli (strain K12), pH 7, 25 °C, Thermal, DSC, tetra-borate 1 mM, reversible: yes(70-95%)
[6] = Escherichia coli (strain K12), pH 7, Thermal, CD, tetra-borate 1 mM, reversible: yes(70-95%)
[7] = Escherichia coli (strain K12), pH 7, Thermal, DSC, tetra-borate 1 mM, reversible: yes(70-95%)
[8] = Escherichia coli (strain K12), pH 7.8, 25 °C, Urea, CD, Potassium phosphate 10 mM, transition: 3
[9] = Escherichia coli (strain K12), pH 7.8, 25 °C, Urea, CD, Potassium phosphate 10 mM
[10] = Escherichia coli (strain K12), pH 9.3, 25 °C, Thermal, DSC, tetra-borate 1 mM, reversible: yes(70-95%)
[11] = Escherichia coli (strain K12), pH 9.3, Thermal, CD, tetra-borate 1 mM, reversible: yes(70-95%)
[12] = Escherichia coli (strain K12), pH 9.3, Thermal, DSC, tetra-borate 1 mM, reversible: yes(70-95%)
[13] = Escherichia coli (strain K12), pH 8.3, Thermal, DSC, borate 40 mM
[14] = Escherichia coli (strain K12), pH 7, 27 °C, Urea, Fluorescence, Potassium phosphate 50 mM, transition: 3, reversible: yes

B1: Regulatory protein rop wild type, P03051 (protein)
chain: MTKQEKTALNMARFIRSQTLTLLEKLNELDADEQADICESLHDHADELYRSCLARFGDDGENL
[1]
  denaturant m value: 2.75 kcal/mol/M
  denaturant midpoint (higher = more stable): 3.3 M
  unfolding free energy: 16 kcal/mol
[2]
  denaturant m value: 3.06 kcal/mol/M
  denaturant midpoint (higher = more stable): 3.23 M
  unfolding free energy: 16.9 kcal/mol
[3]
  heat capacity change of unfolding: 2.46 kcal/mol/K
  unfolding free energy: 17.1 kcal/mol
[4]
  Tm: 71 °C
  heat capacity change of unfolding: 2.46 kcal/mol/K
  unfolding enthalpy (calorimetric): 139 kcal/mol
  unfolding enthalpy (van 't Hoff): 130 kcal/mol
Escherichia coli, pH 7, Thermal, CD, Sodium phosphate 100 mM, NaCl 200 mM
  Tm: 64 °C

B2: Tryptophan synthase alpha chain wild type, P0A877 (protein)
chain: MERYESLFAQLKERKEGAFVPFVTLGDPGIEQSLKIIDTLIEAGADALELGIPFSDPLADGPTIQNATLRAFAAGVTPAQCFEMLALIRQKHPTIPIGLLMYANLVFNKGIDEFYAQCEKVGVDSVLVADVPVEESAPFRQAALRHNVAPIFICPPNADDDLLRQIASYGRGYTYLLSRAGVTGAENRAALPLNHLVAKLKEYNAAPPLQGFGISAPDQVKAAIDAGAAGAISGSAIVKIIEQHINEPEKMLAALKVFVQPMKAATRS
Escherichia coli (strain K12), pH 7, 25 °C, GdnHCl, CD, Potassium phosphate 0.01 M, reversible: yes
  unfolding free energy: 9.3 kcal/mol
Escherichia coli (strain K12), pH 7, 25 °C, Thermal, CD, tetra-borate 1 mM, reversible: yes(70-95%)
  unfolding free energy: 6.7 kcal/mol
[5]
  unfolding enthalpy (calorimetric): 23.2 kcal/mol
  unfolding free energy: 8.4 kcal/mol
Escherichia coli (strain K12), pH 7, 25.8 °C, GdnHCl, CD, Potassium phosphate 0.01 M, reversible: yes
  unfolding free energy: 8.8 kcal/mol
[6]
  Tm: 61.2 °C
  heat capacity change of unfolding: 2.45 kcal/mol/K
  unfolding enthalpy (van 't Hoff): 19.7 kcal/mol
[7]
  Tm: 62.4 °C
  heat capacity change of unfolding: 2.87 kcal/mol/K
[8]
  denaturant m value: 2.9 kcal/mol/M and 1.3 kcal/mol/M
  unfolding free energy: 7.9 kcal/mol and 5.4 kcal/mol
[9]
  denaturant m value: 2.23 kcal/mol/M
  unfolding free energy: 5.91 kcal/mol
Escherichia coli (strain K12), pH 9.3, 25 °C, Thermal, CD, tetra-borate 1 mM, reversible: yes(70-95%)
  unfolding free energy: 3.9 kcal/mol
[10]
  unfolding enthalpy (calorimetric): 23.2 kcal/mol
  unfolding free energy: 5.8 kcal/mol
[11]
  Tm: 50.4 °C
  heat capacity change of unfolding: 2.45 kcal/mol/K
  unfolding enthalpy (van 't Hoff): 19.7 kcal/mol
[12]
  Tm: 54.3 °C
  heat capacity change of unfolding: 2.87 kcal/mol/K

B3: Ornithine carbamoyltransferase subunit I wild type, P04391 (protein)
chain: MSGFYHKHFLKLLDFTPAELNSLLQLAAKLKADKKSGKEEAKLTGKNIALIFEKDSTRTRCSFEVAAYDQGARVTYLGPSGSQIGHKESIKDTARVLGRMYDGIQYRGYGQEIVETLAEYASVPVWNGLTNEFHPTQLLADLLTMQEHLPGKAFNEMTLVYAGDARNNMGNSMLEAAALTGLDLRLVAPQACWPEAALVTECRALAQQNGGNITLTEDVAKGVEGADFIYTDVWVSMGEAKEKWAERIALLREYQVNSKMMQLTGNPEVKFLHCLPAFHDDQTTLGKKMAEEFGLHGGMEVTDEVFESAASIVFDQAENRMHTIKAVMVATLSK
[13]
  Tm: 62.5 °C
  unfolding enthalpy (calorimetric): 600 kcal/mol

B4: 3-isopropylmalate dehydrogenase wild type, P30125 (protein)
chain: MSKNYHIAVLPGDGIGPEVMTQALKVLDAVRNRFAMRITTSHYDVGGAAIDNHGQPLPPATVEGCEQADAVLFGSVGGPKWEHLPPDQQPERGALLPLRKHFKLFSNLRPAKLYQGLEAFCPLRADIAANGFDILCVRELTGGIYFGQPKGREGSGQYEKAFDTEVYHRFEIERIARIAFESARKRRHKVTSIDKANVLQSSILWREIVNEIATEYPDVELAHMYIDNATMQLIKDPSQFDVLLCSNLFGDILSDECAMITGSMGMLPSASLNEQGFGLYEPAGGSAPDIAGKNIANPIAQILSLALLLRYSLDADDAACAIERAINRALEEGIRTGDLARGAAAVSTDEMGDIIARYVAEGV
[14]
  denaturant m value: 5.56 kcal/mol/M and 2.22 kcal/mol/M
  unfolding free energy: 14.7 kcal/mol and 17.7 kcal/mol
Escherichia coli (strain K12), pH 7, Thermal, Fluorescence, potassium phosphate 50 mM, DTT 1 mM, transition: 3, reversible: yes
  unfolding enthalpy (van 't Hoff): 15.4 kcal/mol and 17.8 kcal/mol
